Assay results taken from patent publication US10919943B2, “Mutant proteins enabling agrochemical control of plant gene expression” (The Regents of the University of California, priority 2016, dated 2021).
Where a chain is given by its changes, count along the chain named. Names may count otherwise.

B1: R116E: PYR1 mutant (protein, UniProt O49686 1-191, looked up, variant R116E)
Abscisic acid receptor PYR1: MPSELTPEERSELKNSIAEFHTYQLDPGSCSSLHAQRIHAPPELVWSIVRRFDKPQTYKHFIKSCSVEQNFEMRVGCTRDVIVISGLPANTSTERLDILDDERRVTGFSIIGGEHELTNYKSVTTVHRFEKENRIWTVVLESYVVDMPEGNSEDDTRMFADTVVKLNLQKLATVAEAMARNSGDGSGSQVT
B2: P148S: PYR1 mutant (protein, UniProt O49686 1-191, looked up, variant P148S)
Abscisic acid receptor PYR1: B1 Abscisic acid receptor PYR1 with E116R, P148S
B3: R116H: PYR1 mutant (protein, UniProt O49686 1-191, looked up, variant R116H)
Abscisic acid receptor PYR1: B1 Abscisic acid receptor PYR1 with E116H
B4: P148V: PYR1 mutant (protein, UniProt O49686 1-191, looked up, variant P148V)
Abscisic acid receptor PYR1: B1 Abscisic acid receptor PYR1 with E116R, P148V
B5: N151L: PYR1 mutant (protein, UniProt O49686 1-191, looked up, variant N151L)
Abscisic acid receptor PYR1: B1 Abscisic acid receptor PYR1 with E116R, N151L
B6: R116G: PYR1 mutant (protein, UniProt O49686 1-191, looked up, variant R116G)
Abscisic acid receptor PYR1: B1 Abscisic acid receptor PYR1 with E116G
B7: P148D: PYR1 mutant (protein, UniProt O49686 1-191, looked up, variant P148D)
Abscisic acid receptor PYR1: B1 Abscisic acid receptor PYR1 with E116R, P148D
B8: P148C: PYR1 mutant (protein, UniProt O49686 1-191, looked up, variant P148C)
Abscisic acid receptor PYR1: B1 Abscisic acid receptor PYR1 with E116R, P148C
B9: P148R: PYR1 mutant (protein, UniProt O49686 1-191, looked up, variant P148R)
Abscisic acid receptor PYR1: B1 Abscisic acid receptor PYR1 with E116R, P148R
B10: L117R: PYR1 mutant (protein, UniProt O49686 1-191, looked up, variant L117R)
Abscisic acid receptor PYR1: B1 Abscisic acid receptor PYR1 with E116R, L117R
B11: P148L: PYR1 mutant (protein, UniProt O49686 1-191, looked up, variant P148L)
Abscisic acid receptor PYR1: B1 Abscisic acid receptor PYR1 with E116R, P148L
B12: L117Y: PYR1 mutant (protein, UniProt O49686 1-191, looked up, variant L117Y)
Abscisic acid receptor PYR1: B1 Abscisic acid receptor PYR1 with E116R, L117Y
B13: L117Q: PYR1 mutant (protein, UniProt O49686 1-191, looked up, variant L117Q)
Abscisic acid receptor PYR1: B1 Abscisic acid receptor PYR1 with E116R, L117Q
B14: P148T: PYR1 mutant (protein, UniProt O49686 1-191, looked up, variant P148T)
Abscisic acid receptor PYR1: B1 Abscisic acid receptor PYR1 with E116R, P148T
B15: N151M: PYR1 mutant (protein, UniProt O49686 1-191, looked up, variant N151M)
Abscisic acid receptor PYR1: B1 Abscisic acid receptor PYR1 with E116R, N151M
B16: L117D: PYR1 mutant (protein, UniProt O49686 1-191, looked up, variant L117D)
Abscisic acid receptor PYR1: B1 Abscisic acid receptor PYR1 with E116R, L117D
B17: P148G: PYR1 mutant (protein, UniProt O49686 1-191, looked up, variant P148G)
Abscisic acid receptor PYR1: B1 Abscisic acid receptor PYR1 with E116R, P148G
B18: P148E: PYR1 mutant (protein, UniProt O49686 1-191, looked up, variant P148E)
Abscisic acid receptor PYR1: B1 Abscisic acid receptor PYR1 with E116R, P148E
B19: L117N: PYR1 mutant (protein, UniProt O49686 1-191, looked up, variant L117N)
Abscisic acid receptor PYR1: B1 Abscisic acid receptor PYR1 with E116R, L117N
B20: R116F: PYR1 mutant (protein, UniProt O49686 1-191, looked up, variant R116F)
Abscisic acid receptor PYR1: B1 Abscisic acid receptor PYR1 with E116F
B21: P148K: PYR1 mutant (protein, UniProt O49686 1-191, looked up, variant P148K)
Abscisic acid receptor PYR1: B1 Abscisic acid receptor PYR1 with E116R, P148K
B22: P148H: PYR1 mutant (protein, UniProt O49686 1-191, looked up, variant P148H)
Abscisic acid receptor PYR1: B1 Abscisic acid receptor PYR1 with E116R, P148H
B23: L117G: PYR1 mutant (protein, UniProt O49686 1-191, looked up, variant L117G)
Abscisic acid receptor PYR1: B1 Abscisic acid receptor PYR1 with E116R, L117G
B24: P148Y: PYR1 mutant (protein, UniProt O49686 1-191, looked up, variant P148Y)
Abscisic acid receptor PYR1: B1 Abscisic acid receptor PYR1 with E116R, P148Y
B25: L117S: PYR1 mutant (protein, UniProt O49686 1-191, looked up, variant L117S)
Abscisic acid receptor PYR1: B1 Abscisic acid receptor PYR1 with E116R, L117S
B26: P148N: PYR1 mutant (protein, UniProt O49686 1-191, looked up, variant P148N)
Abscisic acid receptor PYR1: B1 Abscisic acid receptor PYR1 with E116R, P148N
B27: L117K: PYR1 mutant (protein, UniProt O49686 1-191, looked up, variant L117K)
Abscisic acid receptor PYR1: B1 Abscisic acid receptor PYR1 with E116R, L117K
B28: N151Q: PYR1 mutant (protein, UniProt O49686 1-191, looked up, variant N151Q)
Abscisic acid receptor PYR1: B1 Abscisic acid receptor PYR1 with E116R, N151Q
B29: P148F: PYR1 mutant (protein, UniProt O49686 1-191, looked up, variant P148F)
Abscisic acid receptor PYR1: B1 Abscisic acid receptor PYR1 with E116R, P148F
B30: P148Q: PYR1 mutant (protein, UniProt O49686 1-191, looked up, variant P148Q)
Abscisic acid receptor PYR1: B1 Abscisic acid receptor PYR1 with E116R, P148Q
B31: R116I: PYR1 mutant (protein, UniProt O49686 1-191, looked up, variant R116I)
Abscisic acid receptor PYR1: B1 Abscisic acid receptor PYR1 with E116I
B32: L117V: PYR1 mutant (protein, UniProt O49686 1-191, looked up, variant L117V)
Abscisic acid receptor PYR1: B1 Abscisic acid receptor PYR1 with E116R, L117V
B33: L117E: PYR1 mutant (protein, UniProt O49686 1-191, looked up, variant L117E)
Abscisic acid receptor PYR1: B1 Abscisic acid receptor PYR1 with E116R, L117E
B34: L117A: PYR1 mutant (protein, UniProt O49686 1-191, looked up, variant L117A)
Abscisic acid receptor PYR1: B1 Abscisic acid receptor PYR1 with E116R, L117A
B35: L117T: PYR1 mutant (protein, UniProt O49686 1-191, looked up, variant L117T)
Abscisic acid receptor PYR1: B1 Abscisic acid receptor PYR1 with E116R, L117T
B36: N151P: PYR1 mutant (protein, UniProt O49686 1-191, looked up, variant N151P)
Abscisic acid receptor PYR1: B1 Abscisic acid receptor PYR1 with E116R, N151P
B37: L117P: PYR1 mutant (protein, UniProt O49686 1-191, looked up, variant L117P)
Abscisic acid receptor PYR1: B1 Abscisic acid receptor PYR1 with E116R, L117P
B38: P148W: PYR1 mutant (protein, UniProt O49686 1-191, looked up, variant P148W)
Abscisic acid receptor PYR1: B1 Abscisic acid receptor PYR1 with E116R, P148W
B39: P148M: PYR1 mutant (protein, UniProt O49686 1-191, looked up, variant P148M)
Abscisic acid receptor PYR1: B1 Abscisic acid receptor PYR1 with E116R, P148M
B40: G150W: PYR1 mutant (protein, UniProt O49686 1-191, looked up, variant G150W)
Abscisic acid receptor PYR1: B1 Abscisic acid receptor PYR1 with E116R, G150W
B41: G150V: PYR1 mutant (protein, UniProt O49686 1-191, looked up, variant G150V)
Abscisic acid receptor PYR1: B1 Abscisic acid receptor PYR1 with E116R, G150V
B42: L117W: PYR1 mutant (protein, UniProt O49686 1-191, looked up, variant L117W)
Abscisic acid receptor PYR1: B1 Abscisic acid receptor PYR1 with E116R, L117W
B43: G150I: PYR1 mutant (protein, UniProt O49686 1-191, looked up, variant G150I)
Abscisic acid receptor PYR1: B1 Abscisic acid receptor PYR1 with E116R, G150I
B44: P148I: PYR1 mutant (protein, UniProt O49686 1-191, looked up, variant P148I)
Abscisic acid receptor PYR1: B1 Abscisic acid receptor PYR1 with E116R, P148I
B45: L117H: PYR1 mutant (protein, UniProt O49686 1-191, looked up, variant L117H)
Abscisic acid receptor PYR1: B1 Abscisic acid receptor PYR1 with E116R, L117H

Test system: HAB1
Experiment: Yeast two hybrid of pBD-PYR1 site saturation mutants with pACT-HAB1 on 10 μM ABA, β-galactosidase staining
Format: cell-based, Arabidopsis
Parameters: key: x: Mutations in PYR1 that disrupt ABA-induced binding to PYR1 to HAB1
Conditions: S. cerevisiae Y190, 10 μM ABA; dead = lack of visible staining in comparison to wild type control
Procedure, shortened: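 Binding was read by β-galactosidase staining of chloroform-lysed colonies after 2 days at 30° C on SD (-Leu, -Trp) plates containing 10 μM (+)-ABA. Yeast strain Y190 carried the BD-PYR1 single-substitution mutants plus the AD-HAB1 fusion. Absence of staining versus the wild-type control defined "dead" mutants.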

| Molecule | Mutations in PYR1 that disrupt ABA-induced binding to PYR1 to HAB1 |
| --- | --- |
| B1 | x |
| B2 | x |
| B3 | x |
| B4 | x |
| B5 | x |
| B6 | x |
| B7 | x |
| B8 | x |
| B9 | x |
| B10 | x |
| B11 | x |
| B12 | x |
| B13 | x |
| B14 | x |
| B15 | x |
| B16 | x |
| B17 | x |
| B18 | x |
| B19 | x |
| B20 | x |
| B21 | x |
| B22 | x |
| B23 | x |

| Molecule | Mutations in PYR1 that disrupt ABA-induced binding to PYR1 to HAB1 |
| --- | --- |
| B24 | x |
| B25 | x |
| B26 | x |
| B27 | x |
| B28 | x |
| B29 | x |
| B30 | x |
| B31 | x |
| B32 | x |
| B33 | x |
| B34 | x |
| B35 | x |
| B36 | x |
| B37 | x |
| B38 | x |
| B39 | x |
| B40 | x |
| B41 | x |
| B42 | x |
| B43 | x |
| B44 | x |
| B45 | x |
